One molecule from article PMC9233695, “Structural mechanism of protein recognition by the FW domain of autophagy receptor Nbr1” (Nature Communications, 2022) can be followed below.

In assay [1] the target is CtNbr1-FW. Put plainly: SPR analysis of CtNbr1-FW with CtAms1 protein. More on the design: species or system Chaetomium thermophilum. The following applies: Biacore T200, 25 °C, GST-CtNbr1(635–775) captured by anti-GST on CM5 chip, about 200 RU, 10 mM HEPES, pH 7.4, 150 mM NaCl, 0.05% Tween 20, CtAms1 protein 50 to 1.56 nM twofold dilutions, 1:1 binding model, performed once, read-out: dissociation constant (KD). An excerpt:
(§1) Fig. 4 Mutational analysis of interactions between CtAms1 and CtNbr1-FW. a–c Pil1 co-tethering assay. CtNbr1 FW domain and its mutants were fused to Pil1-mCherry and co-expressed with CtAms1-mECitrine or its mutants in S. pombe. Cells were imaged by fluorescence microscopy. Bar, 3 μm. The data shown are representative of two independent experiments with similar results. Source data are provided as a Source Data file. d SPR analysis of the CtNbr1-CtAms1 interaction. GST-tagged CtNbr1 FW domain or its mutants was bound to a CM5 sensor chip. CtAms1 or CtAms1-G2A (twofold serial dilutions from 50 nM to 1.56 nM) flowed through the chip surface. The experiments were performed once. e SPR analysis of the interactions of CtNbr1 and hNBR1 with CtAms1 N-terminal peptides. GST-tagged CtNbr1 FW domain or hNBR1 FW domain was bound to a CM5 sensor chip. Chemically synthesized CtAms1 N-terminal peptides (twofold serial dilutions from 100 μM to 3.13 μM) flowed through the chip surface. […]
(§2) Wild-type and mutant forms of GST-CtNbr1(635–775) and wild-type GST-hNBR1(358-498) were purified from E. coli, and FLAG2-His6 (FFH)-tagged CtAms1 and CtAms1-G2A were purified from S. pombe. […] The dissociation constants (KD) were calculated by fitting the sensorgrams to a 1:1 binding model (for protein–protein interaction) or a steady-state model (for protein-peptide interaction) using Biacore T200 evaluation software.

Assay [2] deals with CtNbr1-FW-D654A. Put plainly: SPR analysis of CtNbr1-FW-D654A with CtAms1 protein. In kind it is binding, Chaetomium thermophilum. The following applies: Biacore T200, 25 °C, GST-CtNbr1 FW D654A mutant captured on CM5 chip, about 200 RU, 10 mM HEPES, pH 7.4, 150 mM NaCl, 0.05% Tween 20, CtAms1 50 to 1.56 nM, performed once.
Source text: as §1, §2

In assay [3] the target is CtNbr1-FW-W763A. The assay is described as follows: SPR analysis of CtNbr1-FW-W763A with CtAms1 protein. The assay is classed as binding, Chaetomium thermophilum. The following applies: Biacore T200, 25 °C, GST-CtNbr1 FW W763A mutant captured on CM5 chip, about 200 RU, 10 mM HEPES, pH 7.4, 150 mM NaCl, 0.05% Tween 20, CtAms1 50 to 1.56 nM, performed once.
Source text: as §1, §2
On the technique in general: SPR reads the build-up and loss of mass on a sensor chip optically.

The test system of assay [4] is CtNbr1. Put plainly: Pil1 co-tethering assay, candidate cargo proteins with CtNbr1. The following applies: Pil1-mCherry-CtNbr1 bait, mECitrine prey, co-expressed in S. pombe, EMM medium, 30 °C; fluorescence microscopy; two independent experiments. The assay is classed as cell-based, Chaetomium thermophilum. The source says:
To investigate whether this receptor-cargo relationship is conserved in C. thermophilum, we examined whether CtNbr1 interacts with the Ct homologs of NVT cargo proteins using an imaging-based Pil1 co-tethering assay. In this assay, CtNbr1 was fused to the C-terminus of the Pil1-mCherry fusion protein, which localizes to distinctive filamentary structures. A cargo protein of interest was fused to the N-terminus of fluorescent protein mECitrine. The two proteins were co-expressed in S. pombe and if they interact with each other, co-localization on filamentary structures would be observed. […] To map which domain is responsible for binding CtAms1, a series of CtNbr1 fragments were analyzed (Fig. 1b).
Plasmids expressing proteins with mECitrine/mCherry/GFP tags under the control of Pnmt1 or P41nmt1 promoter were constructed using modified pDUAL vectors. […]
(§3) Fission yeast cells were grown to mid-log phase in EMM medium at 30 °C. […] Images were obtained with a 100 × 1.4NA objective and analyzed with the SoftWoRx software.
(§4) To examine a pair-wise protein-protein interaction, a bait protein was fused to Pil1-mCherry, and a prey protein was fused to mECitrine. Cells co-expressing both proteins were grown to mid-log phase in EMM medium at 30 °C for fluorescence microscopy. […]

Assay [5] concerns CtNbr1-FW-D654E. The assay is described as follows: Pil1 co-tethering assay, CtAms1 and mutants with CtNbr1 FW domain D654E. The assay is classed as cell-based, Chaetomium thermophilum. The following applies: CtNbr1-FW-D654E fused to Pil1-mCherry, CtAms1-mECitrine or mutants, in S. pombe, 30 °C; two independent experiments.
Source text: as §1, §3, §4

Assay [6] deals with S. pombe cells. The assay is described as follows: Localization / vacuolar entry of CtAms1-mCherry in S. pombe. In kind it is cell-based, Schizosaccharomyces pombe. The source says:
Fig. 5 CtNbr1 mediates vacuolar targeting of CtAms1 via conventional autophagy machinery in S. pombe. a CtNbr1 interacts with SpAtg8 in Pil1 co-tethering assay. SpAtg8(1−115), which lacks the G116 residue required for lipidation, was fused to Pil1-mCherry and co-expressed with mECitrine-tagged CtNbr1 in S. pombe. Pil1-mCherry served as a negative control. Cells were observed by fluorescence microscopy. Bar, 3 μm. b CtNbr1 can enter the vacuole through autophagy in nitrogen-starved S. pombe cells. CtNbr1-mCherry was expressed in wild-type and atg5Δ cells. SpCpy1-Venus was used as a vacuole lumen marker. Cells were collected before (0 h) and 8 h after nitrogen starvation (-N) and examined by fluorescence microscopy. […] C-terminally mCherry-tagged CtAms1, CtAms1-G2A, and CtAms1-G3A were individually co-expressed with untagged CtNbr1 in wild-type S. pombe cells. CtAms1-mCherry alone expressed in wild-type cells served as a negative control. CtAms1-mCherry was also co-expressed with untagged CtNbr1 in atg5Δ cells. Cells were collected before (0 h) and 3 h after nitrogen starvation and were examined by fluorescence microscopy. Bar, 3 μm. The data shown are representative of two independent experiments with similar results. Source data are provided as a Source Data file.
Plasmids expressing mECitrine- or mCherry-tagged CtNbr1 under the control of the P41nmt1 promoter and plasmids expressing mCherry-tagged CtAms1 under the control of the P41nmt1 promoter were constructed using modified stable integration vectors. Plasmids were linearized by NotI digestion and integrated at the ura4 or ade6 locus of the S. pombe genome.
Fission yeast cells were grown to mid-log phase in EMM medium at 30 °C. Microscopy was performed using the DeltaVision PersonalDV system (Applied Precision) equipped with a mCherry/YFP filter set (Chroma 89006 set) and a Photometrics Evolve 512 EMCCD camera. Images were obtained with a 100 × 1.4NA objective and analyzed with the SoftWoRx software.

B1: CtAms1: Chaetomium thermophilum α-mannosidase Ams1 (CTHT_0067100) (protein)
chain: MGGETFDVKGPRPNDYPLRAPKPVGQLISHIYKDRIAQFYNGGQYEHQNLRAMMKEDSVSGEPHVQLWVWHAPGQTRPSFEEAVSNQFVKTNVGEWFGPSWTTHWFRVVLTVPEHLQNKRLLEFHWDSNSEGLVWSEDGKPLQGLTGGGERVEWILPDSFRDGKEHTIYIEMACNRMFGNAPGGDSIQPPDPNKYFRLDKAEIVAIDPDARQLWIDIWILQDAAREFPGDSWESHKALQVCNEIIEAFELGNRESLKKCRKIAEQYLGPNVDSPNVYNSGKEPLVYAIGHCHIDSCWLWPFAETKRKVVRSWSSQCDLMDRYPELNFVCSQAQQYKWLKQLYPYAFERVKKKVAEGRFHPIGGSWVEHDTNMPSGESLVRQFLYGQRFYESNFGKRCKTFWLPDTFGYSAQLPQLCRLAGMTRFLTQKLSWNNINRFPHTTFNWVALDGSQVICHMPPSETYTAEAHFGDVKRSMSQHKSLDQDNTSLLVFGKGDGGGGPTWVQIEKLRRCRGISDTVGLLPRVHMGSSVDDFFDRLERKADTFVTWYGELYFELHRGTYTTQAKNKKNNRRAEAKLRDLELLATIASVQDKSYKYPKEEFDAMWENVLLCQFHDCLPGSSIEMAYRESDQMYADVFSTAEKIMKGVSQVLGLEPALNHMSTTNTVALNTLPWPRRELVKISEKEAAVAHGTGPFLKLQKLETTKPLVTLRQVTKGAFVLENSQLRVHVEKGVITSLYDKQANREVIPKGQKANQYVIFDDKPLYWQAWDVEVYHLDTRKELPSGETEVHENTPHRVSVVTRTKVSDKSHIQTIIALNGAVEGEQSWVEVQSKVDWHETMKFLKVEFPVDVRNTEASYETAFGIVRRPTHYNTSWDMAKFEVCAHRWADLSEYGYGVSILNDSKYGFATAGQTMRLSLLRSPKAPDAHADMGTHHIRWAILPHQGSLSHVTIRKAFEFNNPTKLYSSPDAAALVAAPPPVWLTPDSSPAIVLDTVKRGEDDEDVSRGELPARKGQSVILRMYDSLGGLARGTVVTTWPLKKVCKVNLLEDDLEVVPWENGRFTVELRPFEVASYRLVLA
Take B1: in assay [1], the Kd (as a rule, a measure of binding affinity in units of concentration) came to 3.4 nM. Moreover, the “dissociation constant (KD)” value in assay [2] and in assay [3] was “No binding” in each case. Moreover, the “interaction with CtNbr1” value in assay [4] is “interacted”. For the same molecule, the “binding to D654E mutant of CtNbr1 FW domain” value in assay [5] is on record as “bound”. Moreover, the “localization of CtAms1 expressed alone” value in assay [6] (no CtNbr1, nutrient-rich and nitrogen starvation (3 h), wild-type S. pombe, CtAms1-mCherry) is recorded as “diffuse cytoplasmic distribution”. Moreover, the CtNbr1-dependent vacuolar entry result in assay [6] (untagged CtNbr1 co-expressed, 3 h nitrogen starvation, atg5Δ S. pombe) is “abolished”. The “vacuolar entry on co-expression of CtNbr1” value in assay [6] (untagged CtNbr1 co-expressed, 3 h nitrogen starvation, wild-type S. pombe) is recorded as “vacuolar entry”. The “cell periphery accumulation on co-expression of CtNbr1” value in assay [6] (untagged CtNbr1 co-expressed, nutrient-rich conditions (0 h), wild-type S. pombe) is recorded as “cell periphery accumulation”.
